# pKd: −log10 of the molar value.
# Key:
# [1] = target: His-GST-tagged bovine UBA7(C597A) (bovine); assay: BLI
# bovine UBA7 (bovine) [2] = target: bovine UBA7 (bovine)
# bovine UBA7 (bovine) [3] = assay: SEC-MALS
# [4] = target: His-GST-tagged UBA7(U1) chimera (bovine | human) (UniProt P22314); assay: BLI
# [5] = target: His-GST-tagged bovine UBA7(eCCL) (bovine); assay: BLI
# Chain of His-GST-tagged UBA7(U1) chimera (bovine | human) (P22314 whole entry, change not shown): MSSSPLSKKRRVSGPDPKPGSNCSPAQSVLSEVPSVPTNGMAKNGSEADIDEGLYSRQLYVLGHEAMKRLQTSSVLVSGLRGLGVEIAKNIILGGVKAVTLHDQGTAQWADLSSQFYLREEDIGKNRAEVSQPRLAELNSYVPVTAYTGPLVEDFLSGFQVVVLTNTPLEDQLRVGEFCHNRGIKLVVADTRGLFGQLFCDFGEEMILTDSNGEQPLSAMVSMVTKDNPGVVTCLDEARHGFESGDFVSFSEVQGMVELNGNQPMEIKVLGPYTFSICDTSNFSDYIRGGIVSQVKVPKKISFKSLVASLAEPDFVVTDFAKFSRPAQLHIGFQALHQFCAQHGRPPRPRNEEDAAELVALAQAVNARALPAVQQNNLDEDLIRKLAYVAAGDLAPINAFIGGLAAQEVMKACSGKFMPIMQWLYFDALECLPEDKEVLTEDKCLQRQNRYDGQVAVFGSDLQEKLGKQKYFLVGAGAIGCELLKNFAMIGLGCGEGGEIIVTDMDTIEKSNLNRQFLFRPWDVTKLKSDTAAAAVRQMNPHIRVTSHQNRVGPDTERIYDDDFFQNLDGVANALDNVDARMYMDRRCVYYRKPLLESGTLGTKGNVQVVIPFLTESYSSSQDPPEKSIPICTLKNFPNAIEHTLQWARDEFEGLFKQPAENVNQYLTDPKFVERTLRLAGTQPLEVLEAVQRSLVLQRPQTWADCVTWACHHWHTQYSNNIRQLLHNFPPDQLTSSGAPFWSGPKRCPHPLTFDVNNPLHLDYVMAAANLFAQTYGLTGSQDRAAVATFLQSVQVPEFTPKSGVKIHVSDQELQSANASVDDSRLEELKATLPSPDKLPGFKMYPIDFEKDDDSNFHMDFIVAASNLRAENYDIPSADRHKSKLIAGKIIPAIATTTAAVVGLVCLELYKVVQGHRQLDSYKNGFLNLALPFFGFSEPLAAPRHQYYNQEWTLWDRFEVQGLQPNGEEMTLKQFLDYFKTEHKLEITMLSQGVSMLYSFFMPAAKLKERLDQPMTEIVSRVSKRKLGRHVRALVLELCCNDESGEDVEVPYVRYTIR
pKd [1],"KM of disulfide complex formation (UBA7 titrated with UBE2L6, SDS-PAGE kinetics) (bovine UBA7 (bovine) [2])",stoichiometry N (bovine UBA7 (bovine) [3]),pKd [4],pKd [5],Substance
5.92,1.3 µM,1,–,–,bovine UBE2L6 (from UniProt A5PJC4 1-153) (enzyme)
–,–,–,4.32,5.40,bovine UBE2L6(C86A) (from UniProt A5PJC4 1-153) (enzyme)
